Test results published in IntAct's records for PubMed 23395900.

B1: Structural maintenance of chromosomes protein 3 (Saccharomyces cerevisiae), P47037 (parent)
chain: MYIKRVIIKGFKTYRNETIIDNFSPHQNVIIGSNGSGKSNFFAAIRFVLSDDYSNLKREERQGLIHQGSGGSVMSASVEIVFHDPDHSMILPSGVLSRGDDEVTIRRTVGLKKDDYQLNDRNVTKGDIVRMLETAGFSMNNPYNIVPQGKIVALTNAKDKERLQLLEDVVGAKSFEVKLKASLKKMEETEQKKIQINKEMGELNSKLSEMEQERKELEKYNELERNRKIYQFTLYDRELNEVINQMERLDGDYNNTVYSSEQYIQELDKREDMIDQVSKKLSSIEASLKIKNATDLQQAKLRESEISQKLTNVNVKIKDVQQQIESNEEQRNLDSATLKEIKSIIEQRKQKLSKILPRYQELTKEEAMYKLQLASLQQKQRDLILKKGEYARFKSKDERDTWIHSEIEELKSSIQNLNELESQLQMDRTSLRKQYSAIDEEIEELIDSINGPDTKGQLEDFDSELIHLKQKLSESLDTRKELWRKEQKLQTVLETLLSDVNQNQRNVNETMSRSLANGIINVKEITEKLKISPESVFGTLGELIKVNDKYKTCAEVIGGNSLFHIVVDTEETATLIMNELYRMKGGRVTFIPLNRLSLDSDVKFPSNTTTQIQFTPLIKKIKYEPRFEKAVKHVFGKTIVVKDLGQGLKLAKKHKLNAITLDGDRADKRGVLTGGYLDQHKRTRLESLKNLNESRSQHKKILEELDFVRNELNDIDTKIDQVNGNIRKVSNDRESVLTNIEVYRTSLNTKKNEKLILEESLNAIILKLEKLNTNRTFAQEKLNTFENDLLQEFDSELSKEEKERLESLTKEISAAHNKLNITSDALEGITTTIDSLNAELESKLIPQENDLESKMSEVGDAFIFGLQDELKELQLEKESVEKQHENAVLELGTVQREIESLIAEETNNKKLLEKANNQQRLLLKKLDNFQKSVEKTMIKKTTLVTRREELQQRIREIGLLPEDALVNDFSDITSDQLLQRLNDMNTEISGLKNVNKRAFENFKKFNERRKDLAERASELDESKDSIQDLIVKLKQQKVNAVDSTFQKVSENFEAVFERLVPRGTAKLIIHRKNDNANDHDESIDVDMDAESNESQNGKDSEIMYTGVSISVSFNSKQNEQLHVEQLSGGQKTVCAIALILAIQMVDPASFYLFDEIDAALDKQYRTAVATLLKELSKNAQFICTTFRTDMLQVADKFFRVKYENKISTVIEVNREEAIGFIRGSNKFAEV
partner: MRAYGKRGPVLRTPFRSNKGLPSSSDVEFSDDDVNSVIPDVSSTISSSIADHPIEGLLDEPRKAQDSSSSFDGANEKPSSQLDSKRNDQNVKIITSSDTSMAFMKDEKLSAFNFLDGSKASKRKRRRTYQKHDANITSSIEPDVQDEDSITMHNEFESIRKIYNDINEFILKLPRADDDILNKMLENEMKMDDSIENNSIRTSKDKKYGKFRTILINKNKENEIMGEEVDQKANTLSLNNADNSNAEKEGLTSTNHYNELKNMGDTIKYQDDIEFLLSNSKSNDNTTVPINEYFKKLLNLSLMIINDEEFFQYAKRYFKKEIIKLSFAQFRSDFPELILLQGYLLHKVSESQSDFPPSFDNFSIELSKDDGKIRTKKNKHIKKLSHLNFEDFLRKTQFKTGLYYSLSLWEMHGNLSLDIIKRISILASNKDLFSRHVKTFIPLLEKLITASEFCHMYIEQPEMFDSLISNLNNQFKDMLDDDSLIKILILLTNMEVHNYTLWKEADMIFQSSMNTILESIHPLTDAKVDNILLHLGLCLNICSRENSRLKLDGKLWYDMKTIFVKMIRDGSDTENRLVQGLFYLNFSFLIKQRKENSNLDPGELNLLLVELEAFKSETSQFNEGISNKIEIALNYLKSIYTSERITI
B2: Protein RAD61 (Saccharomyces cerevisiae), Q99359 (parent)
chain: B1 partner
partner: B1 chain

Variants of: B1
Conditions: with rad61_yeast RAD61, Q99359

effect of a mutation on the interaction	Variant
decreasing interaction	L163D;L166D

Variants of: B1
Conditions: with rad61_yeast RAD61, Q99359
Remark: another data set of the same source

effect of a mutation on the interaction	Variant
decreasing interaction	K112N;K113N

Variants of: B1
Conditions: with rad61_yeast RAD61, Q99359
Remark: another data set of the same source

effect of a mutation on the interaction	Variant
decreasing interaction	L163A;L166A;D168A

Variants of: B2
Conditions: with smc3_yeast SMC3, P47037

effect of a mutation on the interaction	Variant
decreasing interaction	D271A;D272A

Variants of: B2
Conditions: with smc3_yeast SMC3, P47037
Remark: another data set of the same source

effect of a mutation on the interaction	Variant
decreasing interaction	K376Q;K377Q;K382Q;K383Q

Variants of: B2
Conditions: with smc3_yeast SMC3, P47037
Remark: another data set of the same source

effect of a mutation on the interaction	Variant
decreasing interaction	N493A;L532E;N622A

Variants of: B2
Conditions: with smc3_yeast SMC3, P47037
Remark: another data set of the same source

effect of a mutation on the interaction	Variant
decreasing interaction	N493A;N622A

Variants of: B2
Conditions: with smc3_yeast SMC3, P47037
Remark: another data set of the same source

effect of a mutation on the interaction	Variant
decreasing interaction	N493A;L577R;N622A
